Source: the supplement of paper PMC10899765
± gives the standard deviation of the averaged measurements.

Tests used:
Settings in all cases: 20 nM; 72 h
MCF10A [1] = experiment: percent viability (nuclei count relative to siNT); higher = more viable cells
Description: (§1)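 After 72 h, cells were fixed and stained with Hoechst and anti-fibrillarin, and nucleoli per nucleus were counted with CellProfiler. Values are plate-adjusted percent effect for the one-nucleolus and 5+ nucleoli phenotypes, normalised to siNT (0%) and to the positive controls siNOL11 or siKIF11 (100%), as the mean of biological triplicates. Percent viability is the nuclei count relative to siNT.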

MCF10A [2] = experiment: 5+ nucleoli phenotype percent effect (relative to siNT 0% and siKIF11 100%); higher = more cells with five or more nucleoli
Description: as §1

MCF10A [3] = experiment: one-nucleolus phenotype percent effect (relative to siNT 0% and siNOL11 100%); higher = more cells with one nucleolus (ribosome biogenesis inhibition)
Description: as §1

| Sequence | percent viability (MCF10A [1]) [%] | 5+ nucleoli phenotype percent effect (MCF10A [2]) [%] | one-nucleolus phenotype percent effect (MCF10A [3]) [%] |
| --- | --- | --- | --- |
| UUCCAGCCCUGGUAGGCGCCGCG [hsa-miR-6720-5p] | 17.9 | -23.2 | 45 |
| GCACCCAGGCAAGGAUUCUG [hsa-miR-500b-3p] | 76.8 | -15.3 | 11.8 |
| AAUAAUACAUGGUUGAUCUUU [hsa-miR-369-3p] | 162 | 11.7 | -9.36 |
| ACUGGGGGCUUUCGGGCUCUGCGU [hsa-miR-637] | 22.7 | -19.4 | 50.5 |
| UUCUAGAUGAGAGAUAUAUAUA [hsa-miR-4777-5p] | 34.7 | -25.9 | 29.8 |
| ACUGGGAUGUCACUGAAUAUGGU [hsa-miR-6506-5p] | 28.3 | -3.32 | 25 |
| AGGAGGAAUUGGUGCUGGUCUU [hsa-miR-766-5p] | 5.17 | -33 | 33.8 |
| AAAAGUAAUUGCGGUUUUUGCC [hsa-miR-548c-5p] | 166 | 16.9 | -19.1 |
| AUCGUGCAUCCCUUUAGAGUGU [hsa-miR-517a-3p] | 46.8 | -11.8 | 3.74 |
| UCCUAAAUCUGAAAGUCCAAAA [hsa-miR-5009-3p] | 117 | 46.2 | -25.9 |
| UGAAGCGCCUGUGCUCUGCCGAGA [hsa-miR-7706] | 40.2 | 12.3 | -18.1 |
| CCCUUGGGUCUGAUGGGGUAG [hsa-miR-3189-3p] | 25.3 | -6.22 | 15.4 |
| UGUGGGAUCUGGAGGCAUCUGG [hsa-miR-4654] | 38.8 | -29.4 | 6.3 |
| GAAGUUGUUCGUGGUGGAUUCG [hsa-miR-382-5p] | 37.7 | -18.5 | 27.9 |
| UCUGGUAUGUAGUAGGUAAUAA [hsa-miR-4774-5p] | 62.8 | 80.9 | -25.6 |
| CGGGUGGAUCACGAUGCAAUUU [hsa-miR-363-5p] | 4.57 | 161 | -21.2 |
| UGUAGAUACGAGCACCAGCCAC [hsa-miR-3935] | 38.5 | 20.9 | -7.2 |
| CUUGGUUCAGGGAGGGUCCCCA [hsa-miR-659-3p] | 34.6 | -6.48 | 37.6 |
| AUCAUAGAGGAAAAUCCACGU [hsa-miR-376a-3p] | 52.2 | 51.3 | -19.3 |
| AAAAGUAAUUGCGGUUUUUGC [hsa-miR-548au-5p] | 100 | 42.7 | -19.4 |
| CGGGGUGGGUGAGGUCGGGC [hsa-miR-4651] | 33.5 | -1.6 | 2.27 |
| UUCACCCCUCUCACCUAAGCAG [hsa-miR-6802-3p] | 63.6 | 15.5 | -11.2 |
| UCCUGCGCGUCCCAGAUGCCC [hsa-miR-1539] | 60.9 | -2.94 | 15.6 |

| Sequence | percent viability (MCF10A [1]) [%] | 5+ nucleoli phenotype percent effect (MCF10A [2]) [%] | one-nucleolus phenotype percent effect (MCF10A [3]) [%] |
| --- | --- | --- | --- |
| UGGGGAUUUGGAGAAGUGGUGA [hsa-miR-4450] | 16.5 | 3.63 | 46.8 |
| UCGUAUCAGAGAUUCCAGACAC [hsa-miR-6506-3p] | 85.1 | -11.2 | 5.43 |
| CCAGUGACUGAGCUGGAGCCA [hsa-miR-5190] | 31.7 | -11.4 | 29.3 |
| GGGAAGAGCUGUACGGCCUUC [hsa-miR-6077] | 37.4 | -35.5 | 32.5 |
| UGUUGCAAGUCGGUGGAGACGU [hsa-miR-4684-3p] | 43.9 | -9.23 | 4.39 |
| AUUGGGGACAUUUUGCAUUCAU [hsa-miR-450a-3p] | 31.6 ± 3.4 | -17.5 ± 0.61 | 7.56 ± 4.4 |
| UAGCAAUACAGUACAAAUAUAGU [hsa-miR-4703-5p] | 131 | 32.3 | -22 |
| AAUCAUACACGGUUGACCUAUU [hsa-miR-154-3p] | 67.2 | -5.26 | -0.992 |
| UAUGGCUUUUCAUUCCUAUGUGA [hsa-miR-135b-5p] | 47.9 | -32.7 | 21.8 |
| UUGCAGCUGCGGUUGUAAGGU [hsa-miR-5047] | 36.3 | -30.3 | 11.1 |
| CCUCAGAUCAGAGCCUUGC [hsa-miR-4330] | 91.9 | 59.5 | -32.8 |
| CAAAGUGCCUCCCUUUAGAGUG [hsa-miR-519d] | 72.3 | 62.9 | -20.2 |
| AAAAGUAAUUGUGGUUUUGGCC [hsa-miR-548b-5p] | 131 | 36.5 | -24.3 |
| CUUGGGAGCCCUGUUAGACUC [hsa-miR-887-5p] | 176 | 76 | -32.3 |
| GUGGCUCUGUAGUAAGAUGGA [hsa-miR-8057] | 44.7 | 6.17 | 6.14 |
| UAACACUGUCUGGUAACGAUGU [hsa-miR-200a-3p] | 75.6 | 36.9 | -6.99 |
| ACGGUGCUGGAUGUGGCCUUU [hsa-miR-1250] | 25 | -44.5 | 57.9 |
| GCAGUUCUGAGCACAGUACAC [hsa-miR-4277] | 210 | 31.2 | -25 |
| UGUCUCUGCUGGGGUUUCU [hsa-miR-593-3p] | 18.1 | -39.2 | 55.4 |
| UGGGGGUGUGGGGAGAGAGAG [hsa-miR-7110-5p] | 40.9 | -6.75 | 6.58 |
| AACAUUCAUUGCUGUCGGUGGGU [hsa-miR-181b-5p] | 93.5 | 10.9 | 1.83 |
| CAUACAAUCUGACAUGUAUUU [hsa-miR-4666a-3p] | 66.1 | 15.8 | -4.04 |
